Laboratory results published in patent US20030228627A1, “Assay for p53 function in cells” (priority 2002, published 2003).

Biological target: Full-length human histidine-tagged p300 (human) (UniProt Q09472)
Assay: cell-based or functional assay

Chain of Full-length human histidine-tagged p300 (human) (Q09472 2-2414): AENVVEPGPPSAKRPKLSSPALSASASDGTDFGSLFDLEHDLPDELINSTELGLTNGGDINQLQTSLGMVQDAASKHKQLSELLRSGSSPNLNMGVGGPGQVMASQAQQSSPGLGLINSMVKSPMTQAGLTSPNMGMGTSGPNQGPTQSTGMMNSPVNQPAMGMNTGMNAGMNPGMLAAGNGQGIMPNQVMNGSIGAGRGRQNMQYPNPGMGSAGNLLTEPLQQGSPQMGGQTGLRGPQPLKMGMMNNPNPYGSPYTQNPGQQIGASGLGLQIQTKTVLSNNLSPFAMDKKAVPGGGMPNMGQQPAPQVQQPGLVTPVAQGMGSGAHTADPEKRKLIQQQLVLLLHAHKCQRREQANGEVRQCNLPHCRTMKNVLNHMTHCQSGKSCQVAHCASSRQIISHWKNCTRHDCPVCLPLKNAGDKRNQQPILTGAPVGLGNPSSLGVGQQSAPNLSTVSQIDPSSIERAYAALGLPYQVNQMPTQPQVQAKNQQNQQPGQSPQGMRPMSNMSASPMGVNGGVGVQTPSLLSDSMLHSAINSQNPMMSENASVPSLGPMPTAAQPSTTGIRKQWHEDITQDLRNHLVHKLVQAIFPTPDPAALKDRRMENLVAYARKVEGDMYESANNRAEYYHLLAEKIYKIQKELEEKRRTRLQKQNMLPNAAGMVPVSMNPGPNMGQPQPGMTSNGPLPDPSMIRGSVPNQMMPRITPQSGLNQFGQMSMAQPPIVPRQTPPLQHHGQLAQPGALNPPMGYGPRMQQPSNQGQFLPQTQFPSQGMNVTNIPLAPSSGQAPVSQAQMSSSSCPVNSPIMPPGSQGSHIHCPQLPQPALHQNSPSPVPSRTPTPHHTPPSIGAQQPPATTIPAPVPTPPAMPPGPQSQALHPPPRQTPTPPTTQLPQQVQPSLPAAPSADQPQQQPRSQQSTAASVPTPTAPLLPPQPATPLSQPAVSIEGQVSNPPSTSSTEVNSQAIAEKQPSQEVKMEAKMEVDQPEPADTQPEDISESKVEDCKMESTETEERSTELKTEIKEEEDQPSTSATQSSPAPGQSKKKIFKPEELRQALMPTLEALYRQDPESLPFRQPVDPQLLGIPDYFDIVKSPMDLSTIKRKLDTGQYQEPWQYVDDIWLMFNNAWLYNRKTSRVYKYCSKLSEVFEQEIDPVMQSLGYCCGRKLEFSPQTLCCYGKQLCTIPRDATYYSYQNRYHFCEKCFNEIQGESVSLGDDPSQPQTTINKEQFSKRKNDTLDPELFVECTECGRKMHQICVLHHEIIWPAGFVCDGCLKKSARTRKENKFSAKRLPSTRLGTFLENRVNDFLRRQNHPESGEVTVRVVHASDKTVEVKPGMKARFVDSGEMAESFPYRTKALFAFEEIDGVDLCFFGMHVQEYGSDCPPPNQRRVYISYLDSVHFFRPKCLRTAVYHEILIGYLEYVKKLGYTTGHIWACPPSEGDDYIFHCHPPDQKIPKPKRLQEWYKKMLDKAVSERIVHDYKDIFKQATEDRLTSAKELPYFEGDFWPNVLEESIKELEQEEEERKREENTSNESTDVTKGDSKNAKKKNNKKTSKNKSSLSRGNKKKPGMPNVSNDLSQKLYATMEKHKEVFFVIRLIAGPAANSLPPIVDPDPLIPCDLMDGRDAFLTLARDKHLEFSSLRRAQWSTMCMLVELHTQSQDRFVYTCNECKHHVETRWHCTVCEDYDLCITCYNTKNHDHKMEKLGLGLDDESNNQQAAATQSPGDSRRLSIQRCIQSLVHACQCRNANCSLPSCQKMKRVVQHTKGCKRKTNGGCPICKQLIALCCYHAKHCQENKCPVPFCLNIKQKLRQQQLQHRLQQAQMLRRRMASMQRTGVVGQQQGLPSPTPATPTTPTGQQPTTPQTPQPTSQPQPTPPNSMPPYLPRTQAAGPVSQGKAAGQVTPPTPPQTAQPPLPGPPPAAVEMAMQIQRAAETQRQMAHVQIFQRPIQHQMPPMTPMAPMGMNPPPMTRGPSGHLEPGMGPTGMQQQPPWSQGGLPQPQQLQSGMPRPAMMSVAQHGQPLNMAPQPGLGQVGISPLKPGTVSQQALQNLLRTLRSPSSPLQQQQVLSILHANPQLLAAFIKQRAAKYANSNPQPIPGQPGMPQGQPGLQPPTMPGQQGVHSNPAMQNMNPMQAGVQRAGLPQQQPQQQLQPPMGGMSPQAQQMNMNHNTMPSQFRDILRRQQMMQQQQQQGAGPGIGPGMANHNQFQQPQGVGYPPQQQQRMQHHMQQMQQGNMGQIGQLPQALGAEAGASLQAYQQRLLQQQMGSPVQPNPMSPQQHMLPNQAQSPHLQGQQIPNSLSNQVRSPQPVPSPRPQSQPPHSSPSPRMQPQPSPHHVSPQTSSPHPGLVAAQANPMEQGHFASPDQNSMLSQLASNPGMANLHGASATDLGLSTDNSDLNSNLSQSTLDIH

Full-length human Flag-tagged p53 (native, unacetylated) (from UniProt P04637 1-393)
increased acetylation in a distal region 2 kb downstream of the proximal promoter of the p21-LUC plasmid (in vitro chromatin immunoprecipitation with anti-acetyl-H4): 1.4 fold | increased acetylation near the 3' p53 binding site of the p21-LUC plasmid (in vitro chromatin immunoprecipitation with anti-acetyl-H4): 3.4 fold
